Source: PMC6611371 (Research and Practice in Thrombosis and Haemostasis, 2019)

Key:
Assay in all cases: SPR
FVIIaDV = FVIIaDV (Homo sapiens, UniProt P08709, point mutant)
FVIIaDQ = FVIIaDQ (Homo sapiens, UniProt P08709, point mutant)
FVIIaVQ = FVIIaVQ (Homo sapiens, UniProt P08709, point mutant)

- Kd (FVIIaDV): 1.1 nM
- koff (FVIIaDV): 0.00016 s⁻¹
- Kd (FVIIaDQ): 1.9 nM
- koff (FVIIaDQ): 0.00024 s⁻¹
- Kd (FVIIaVQ): 130 nM
- koff (FVIIaVQ): 0.0035 s⁻¹
B1: mAb4F5 (antibody, V domains shown)
VH: EVKLVESGGGLVQPGGSRKLSCAASGFTFSDYGMAWVRQAPGKGPEWIAFISNLSRIYYADTVTGRFTISRENDKNTLFLEMSSLRSEDSAIYYCTRDDGYYRVDYWGQGATLTVSS
VL: DIVMTQSHKFLSTSVGNRVSITCKASQDVGIGLVSWYQQKPGQSPKLLIHWASTRHTGVPDRFTGSGSGTDFTLTINNVQSEDLATYFCQQFSNYPLTFGSGTRLEIK
